Results reported in article PMC8415317 (Genes & Development, 2021).

Columns and labels:
ERH-2 = format: binding, C. elegans
[1] = SEC-MALS, molecular mass and oligomeric state; format: physicochemical, C. elegans
TOFU-6^RRM = assay: SEC assay, TOFU-6^RRM with PID-3^RRM; format: binding, C. elegans; details: 1:1.5 molar ratio, Superdex 200 Increase 10/300
[2] = tested on: FITC-labeled 28-mer RNA based on the 21U-3372 precursor; assay: Fluorescence anisotropy RNA binding, FITC-28-mer pre-piRNA; set-up: species or system C. elegans; details: 100 nM FITC-28-mer RNA, pH 7.5, 15°C
[3] = tested on: Cy5-labeled 16-mer oligo(U) RNA; assay: Fluorescence anisotropy RNA binding, Cy5-U16; details: 100 nM Cy5-U16 RNA, pH 7.5, 15°C
PID-3/TOFU-6 interaction = format: binding, C. elegans

B1: PID-3^RRM: PID-3 RRM domain, residues 196–274 (protein)
chain: PRGADQENMLKISGYPGMLNTFGIAQLLTPYRVNGITITGAQSAVVALENKFQVYQAVQDFNGKKLDRNHKLQVSSLVV
modifications: left off: His6, N-terminal, state not stated | GST, N-terminal, state not stated
Q: Which “binding to ERH-2 in GST pull-down” value (ERH-2) does the source give for B1 here?
A: failed to bind ERH-2

Q: And the oligomeric state [1]?
A: homodimers

Q: What about the “PID-3^RRM/TOFU-6^RRM interaction by SEC” value (TOFU-6^RRM) of the same molecule?
A: This is supported by SEC

Q: And the “relative RNA binding affinity” value [2]?
A: lowest binding affinity

Q: And the “relative RNA binding affinity” value [3]?
A: lowest binding affinity

Q: What about the “PID-3/TOFU-6 interaction in pull-down” value (PID-3/TOFU-6 interaction) of the same molecule?
A: the RRM domains of PID-3 and TOFU-6 mediate the interaction between the two proteins
